Test results as given in publication PMC11092324.

Target: CV-1A1 Fv-clasp (UniProt Q13043)
Assay: ELISA; sandwich ELISA: CV-1A1 Fv-clasp or scFv (0.7 µM in 50 mM carbonate buffer pH 9.6) coated on high-binding microplates, VLPs added in twofold serial dilutions, 37°C 2 h, detected with rabbit anti-VLP antisera; data fit to the Michaelis-Menten equation, Km taken as Kd (affinity or avidity); concentration counted as VP1

## GI.4 Chiba virus-like particles (VP1 major capsid protein of the norovirus GI.4 Chiba strain) (complex)
  Kd: 3.77 nM
